What was measured:
human CD47 [1] = target: T1, human CD47 (human, UniProt Q08722 19-323); experiment: flow cytometry, titration of SIRPα-Fc-bio on Jurkat cells
human CD47 [2] = target: T1, human CD47; experiment: cell-based or functional assay

## biotinylated fusion protein of SIRPα (SIRPα-Fc-bio) (Fc fusion)
Human CD47 [1]
  EC70: 7.5 µg/mL

B1: anti-CD47 antibody 2.3D11 (antibody, V domains shown)
VH: QVQLQESGPGLVKPSGTLSLTCAVSGVSIRSINWWNWVRQPPGKGLEWIGEIYHSGSTNYNPSLKSRVTISVDKSKNQFSLKLNSVTAADTAVYYCARDGGIAVTDYYYYGLDVWGQGTTVTVSS
VL: EIVLTQSPATLSLSPGERATLSCRASESVSSNLAWYQQKPGQAPRLLIYGAFNRATGIPARFSGSGSGTDFTLTISSLEPEDFAVYYCQQRSDWFTFGGGTKVEIKR
Human CD47 [2]
  phagocytosis of Raji tumor cell line targets by primary human macrophages (EC50): ~0.3 µg/mL
